From the DeepSol protein solubility set

Test: soluble on expression in E. coli; label from the status in PepcDB or PDB records

| Sequence | soluble on expression in E. coli |
| --- | --- |
| MGSSHHHHHHHHDYDIPTTENLYFQGSELSSLTAVSPVDGRYGDKVSALRGIFSEYGLLKFRVQVEVRWLQKLAAHAAIKEVPAFAADAIGYLDAIVANFSEEDAARIKTIERTTNHDVKAVEYFLKEKVAEIPELHAVSEFIHFACTSEDINNLSHALMLKTARDEVILPYWRQLIDGIKDLAVQYRDIPLLSRTHGQPATPSTIGKEMANVAYRMERQYRQLNQVEILGKINGAVGNYNAHIAAYPEVDWHQFSEEFVTSLGIQWNPYTTQIEPHDYIAELFDCVARFNTILIDFDRDVWGYIALNHFKQKTIAGEIGSSTMPHKVNPIDFENSEGNLGLSNAVLQHLASKLPVSRWQRDLTDSTVLRNLGVGIGYALIAYQSTLKGVSKLEVNRDHLLDELDHNWEVLAEPIQTVMRRYGIEKPYEKLKELTRGKRVDAEGMKQFIDGLALPEEEKARLKAMTPANYIGRAITMVDELK | soluble |
| MADWVTGKVTKVQNWTDALFSLTVHAPVLPFTAGQFTKLGLEIDGERVQRAYSYVNSPDNPDLEFYLVTVPDGKLSPRLAALKPGDEVQVVSEAAGFFVLDEVPHCETLWMLATGTAIGPYLSILRLGKDLDRFKNLVLVHAARYAADLSYLPLMQELEKRYEGKLRIQTVVSRETAAGSLTGRIPALIESGELESTIGLPMNKETSHVMLCGNPQMVRDTQQLLKETRQMTKHLRRRPGHMTAEHYW | soluble |
| GPGSMSTMAASRSDTPAPVHEMSMERLRREYVSLKSTSYSLTVEESHLIRKIETLREESVRAVLNAEMKEEQVSNQLFRRLDGAEREVQRYQALLKEEESEAESLSGRIKEMRSQQTEVENALEERQEYLLMNLQRKLLDMARKKTAVEQELMAERQKYLDVLVTRLNMLRGRGVGSSTESSVTIHSQPSPAEANTVPVAKHLDVPLPTTAAPHISTPLLRTGVPLGDNHGMLPAEKPLREDAHTDAGLPLPFVLSPAISAQKKPKDGVIVNASRGNTSSTSGRLSASTTPLSADLTPRSSHSSETHHAVVALERKLNQLLLEQAAAMQRTSATEKQCAVLTAKLHAVQEATFLDRARASKMKEELEKARARLSEVKARDRSGIPFSPLDDTSVMSGSNASFDNSSPLVLSSLSLRERTRELLSSVPQPNANERPC | not soluble |
| MGDYDYLIKFLALGDSGVGKTSFLHRYTDNTFTGQFISTVGIDFKEKKVVYKSSRGGFGGRGQRVLLQLWDTAGQERFRSLTTAFFRDAMGFILIFDITNEQSFLNIRDWLSQLKVHAYCEQPDIIICGNKADLENRRQVSTARAKQLADQLGLPYFETSACTSTNVEKSVDCLLDLVMQRIQQSVETSSLPLSECRGVSLDGDPSAASSYCANC | not soluble |
| MGSDKIHHHHHHMVVIISAHNIATLEYQPMPKISDSGEPVEGVQAVALTLKILEALANARSTVGVTELSKQIGAGKARVYRHLQTLVTLGYALKDEESERYSTGPQLLRLSHTLSYRLDVVEAARLPARKLSDATGLTAVVARVEGDAIVVVHAEYSRADTMRSPRIGTTMQFHYTALGKIALAFGPAELRSRVLNEPLEQLTAYTITDRRDLMKKLEKIQELGWASSANEGMVGFNALAAPITDAHERLVGMICVVGSIKQLPATPPQNYLDALLSTADDISAYFGHVSRMPS | not soluble |
| MSLSEFWKEKHGEREQDHEKTIMDGYSVANRFDGTGGGWGYSANSVEAIQFKVSKEIRLVGVGLYGGRGEYISKLKLYRQIGTEADELYVEQITETDETVYDCGAHETATMLFSQPIVIQPNHWHVVSAKISGPSSDCGANGKRHVECDGVTFQFRKSAVSNNGTDVDVGQIPELYYQIVGGSESRDESDSNKQLSISREGHHHHHH | soluble |
| MGSDKIHHHHHHMDNKELKAFCNLIGLNCVGVAGVDKYDNLEKILKDRQQKGYLTGMEEPIIENRINPRHIMKDANSIIVCAFPYHINRQEKNKNSNLSKYCHGKDYHIVVKDFLQQICDYISKTVTDFKYKLFADNGPLVDRYLAYLSGIGYFGINNNIITDEYGSYVFIGYIVNNYKFEEDKPLEKSCFKCGKCVKYCPGNAILGNYDMNPKKCLSYITQKKGDLSEKEKVVLKNGKKVFGCDICQEVCPHNVEIPTTHILEFKENIIDYLDYDEIQNISNKEFKRRYGDRAFSWRGRNIIKRNMEIILDKYDD | not soluble |
| NNDITAENNNIYKAAKDVTTSLSKVLKNIN | soluble |
| LPKPGVYYFPWEVSDGHVPEGSTLRTFGRLYLYDMARSLMTLAAPQKPDQCQLLVCTNLVEPFEAHVNFLYMVLGDLERMEGGAFVVRARLLTCVEGMDLSLLEKAILEQRRHLQKRQQPIGDASTLQTPTPAPQSIPSD | not soluble |
| MSAQDFLVELGTEELPPKALASLGDAFLAGIEKGLQAAGLNYTGKQVYAAPRRLAVLIRQLDVQQPDRSINIDGPPLQAAFNAEGEPTQAALGFAKKCGVELAEIDQSGPKLRFSQHIPGKATVGLLPTIVEDSLNDLPIPKRMRWAASREEFVRPTQWLVMLLGDQVVDCTILSQKAGRESRGHRFHHPENVLITTPANYVEDLRKAYVLADFAERRELISKRTAELAMQQEGTAIVPPALLDEVTALVEWPVPLVCSFEERFLEVPQEALITTMQDNQKYFCLLDSEGKLLPRFITVANVESRDPKQIVQGNEKVVRPRLTDAEFFFKQDKKQPLETFNERLKNVVFQAQLGTVYDKAERVSRLAAFIAPLIGGDAQRAGRAGLLSKCDLATEMVGEFPEMQGVAGYYYALNDGEPEDVALALNEQYMPRGAGAELPQTLTGAAVAIADKLDTLVGIFGIGMLPTGSKDPYALRRAALGVLRILIEKQLDLDLTGAVEFAVKQFGAKIKAPGLAEQVLEFIFDRLRARYEDEGIDVATYLSVRALQ | not soluble |
| MFEKVIKLWRDTFPKSEHKLMSIEYVAAIEEFNEYFPGYAAMNDSNYSKLQHFFRSLHPIGCIKPFRFHYSSAFALENSLDDYLLKNAQFKRDGLAGEWAIHIFADHNDHIIEKYRMYKKKRLEKLERTFEERKKKAER | not soluble |
| AHHHHHHGSAKRVHLFDWHKEHAKKIEEFAGWEMPIWYSSIKEEHLAVRNAVGVFDVSHMGEILFKGKDALKFLQYTTTNDISKPPAISGTYTLVLNERGAIKDETLVFNMGNNEYLMICDADAFEKLYAWFTYLKKTIEQFTKLDLEIELKTYDIAMFAVQGPKARDLAMDLFGIDINEMWWFQGRWVELDGIKMLLSRSGYTGENGFEVYIEDLNPYHPDEEKRGKPEKALHVWERILEEGQKYGIKPAGLGARDTLRLEAGYTLYGNDTKELQLLSTDIDEVTPLQANLEFAIYWDKDFIGKDALLKQKEKGLGRKLVHFKMLEKSVPREGYKVYANGELIGEVTSGTLSPLLNIGIGIAFVKEEYAKPGVEIEIDIRGTRKKAITVTPPFYDPKKYGLFREE | soluble |
| MGSDKIHHHHHHMNNTRSAYEKIIKDLQGVGFSDYEAKTYIALLLTPNATAYEISKEAGIPKANCYSVLEALRKNGAVQAVSENPVKYVAVDPNRYFNQMVELTQLRCEDLKESLKNIGHLPQEDLVWSLNDAAAVGLHIEKMIGSARDTIRIKAADTTLEPHLPSLKKAARRGVKVLIILFGEDVRPFELGKNCKVYLHEGNGIRVGISHKLITVTRDYKEALVAEVGRDAYGSYTENKPIVTLADSLLRHEIYFAEIFSCFGDEIQEKFGPALVKLRESYLPADQADALKVFLETADPARLAGKATAA | not soluble |
| QVQLKESGPGLVAPSQSLSITCTVSGFSLTDYGVDWVRQPPGKGLEWLGMIWGDGSTDYNSALKSRLSITKDNSKSQVFLKMNSLQTDDTARYYCVRDPADYGNYDYALDYWGQGTSVTVSSAKTTPPSVYPLAPGSAAQTNSMVTLGCLVKGYFPEPVTVTWNSGSLSSGVHTFPAVLQSDLYTLSSSVTVPSSTWPSETVTCNVAHPASSTKVDKKIVPRDCG | soluble |
| MTEKSIDLSVDIAGLRLSNPVIAASGTFGFGREFVDYVDLNKIGGISVKGLTLEKRQGNRPPRIAETPAGILNSVGLQNPGVRAFIENEIPFLRKYNTKIIANIAGNTIEDYCKMAELLSDADIDAIELNVSCPNVKKGCVAFGNSPAGISEITSKVKKYCKKPLIVKLTPNVTDIKEIAVAAEAAGADALSLINTILGMAIDIHRKRPILANNVGGLSGPAVKPIAVRMVYEVCSVVKIPVIGMGGISSGEDAVEFMLAGASAVMVGTANFINPAACIDVVEGIKNYLKMYNHGSVYEIIGKLQLN | not soluble |
| VAAALGVKPPETATTPEIVVGRPPELCKGCGHRDMFDAINIAIKENADHHVFSDIGCYTLGALPPYNAIHTCVDMGAAITMAKGAADAGLRPAVCVIGDSTFAHSGMTGLLDAVNDRTPVTVIIADNNTTAMTGGQCSSASGSKLVNICIGLGVEEAHIRTIVPLRQHLHENVSVLRDEFAYNGVSVVIAQRECIETAAKKKRRAAASAQ | not soluble |
| MAATFPLSAGTYSINGRKYRKTAYNLKADTSFDLNTDTTFADTPDIYEDEASADCFAPPGLPELRKRAAKAKIVAKAVETSSKEPEPTEDDRIKVIGGKKWISSINVAPCFIGKLIGTNRRTLNSLENETQCRVKTPRRNENIACEISSIVSLECVQRCLDRLEIFIDDSRKTARVNHFVALPCDQHEVQENFNIFKQMVMESDHFDSSCKNSQLFTKPTRLHLTLSVARIFDDMDLQKAVGAFEILEKEIRQIKDSKPLIADIQGIDMMNDDPSQVFVLYAKVKGDKVQEVANYVNRRLIELGVSSKNEHDNGSDAVKLHMTLMNSRYVTQSEKSGKSKEAALFDAKQVLEDLKDSYFGTFELKEVNFDVKKFKQRI | not soluble |
| MGSDKIHHHHHHMLFSAPPVLAPVVPGKALEFPQDFGAHNDFRIEWWYVTGWLETPTGKPLGFQITFFRTATEIDRDNPSHFAPDQLIIAHVALSDPAIGKLQHDQKIARAGFDLAYARTGNTDVKLDDWIFVRETDGRYRTRIEAEDFTLTFILTPSQPLMLQGENGFSRKGPGAPQASYYYSEPHLQVSGIINRQGEDIPVTGTAWLDREWSSEYLDPNAAGWDWISANLDDGSALMAFQIRGKDDSKIWAYAALRDASGHTRLFTPDQVSFHPIRTWRSARTQAVYPVATRVLTGETEWQITPLMDDQELDSRASAGAVYWEGAVTFTRDGQPAGRGYMELTGYVRPLSM | not soluble |
| MNSTSIYILVALHPIITLTNMPNTAMEATELLKEIQKHDSQQAFRSLYDMYYDRFFRIAFYYLQRDEWAQEVILDVFTTLWNHRKSQLIPDDFNKYSYILIRNAALNYLEKEQRREASPLENMPEISSSNLSPEEQMMNEELFNIYENSLNELPERCRTIFIKVREEKQSYASVAEELNISPKTVDAQLQKAVTRLKEKINNYFRNRR | not soluble |
| MGSKRRFSSEHPDPVETSIPEQAAEIAEELSKQHPLPSEEPLVHHDAGEFKGLQRHHTSAEEAQKLEDGKINPFTGREFTPKYVDILKIRRELPVHAQRDEFLKLYQNNQIMVFVGETGSGKTTQIPQFVLFDEMPHLENTQVACTQPRRVAAMSVAQRVAEEMDVKLGEEVGYSIRFENKTSNKTILKYMTDGMLLREAMEDHDLSRYSCIILDEAHERTLATDILMGLLKQVVKRRPDLKIIIMSATLDAEKFQRYFNDAPLLAVPGRTYPVELYYTPEFQRDYLDSAIRTVLQIHATEEAGDILLFLTGEDEIEDAVRKISLEGDQLVREEGCGPLSVYPLYGSLPPHQQQRIFEPAPESHNGRPGRKVVISTNIAETSLTIDGIVYVVDPGFSKQKVYNPRIRVESLLVSPISKASAQQRAGRAGRTRPGKCFRLYTEEAFQKELIEQSYPEILRSNLSSTVLELKKLGIDDLVHFDFMDPPAPETMMRALEELNYLACLDDEGNLTPLGRLASQFPLDPMLAVMLIGSFEFQCSQEILTIVAMLSVPNVFIRPTKDKKRADDAKNIFAHPDGDHITLLNVYHAFKSDEAYEYGIHKWCRDHYLNYRSLSAADNIRSQLERLMNRYNLELNTTDYESPKYFDNIRKALASGFFMQVAKKRSGAKGYITVKDNQDVLIHPSTVLGHDAEWVIYNEFVLTSKNYIRTVTSVRPEWLIEIAPAYYDLSNFQKGDVKLSLERIKEKVDRLNELKQGKNKKKSKHSKKHHHHHH | soluble |
